{"source": "patent US7183377", "about": "(US Dept. of Health and Human Services, dated 2007)", "binders": {"B1": {"name": "human Frizzled-related protein (FRP) (receptor)", "chain": "VGSASEYDYVSFQSDIGPYQSGRFYTKPPQCVDIPADLRLCHNVGYKKMVLPNLLEHETMAEVKQQASSWVPLLNKNCHAGTQVFLCSLFAPVCLDRPIYPCRWLCEAVRDSCEPVMQFFGFYWPEMLKCDKFPEGDVCIAMTPPNATEASKPQGTTVCPPCDNELKSEAIIEHLCASEFALRMKIKEVKKENGDKKIVPKKKKPLKLGPIKKKDLKKLVLYLKNGADCPCHQLDNLSHHFLIMGRKVKSQYLLTAIHKWDKKNKEFKNFMKKMKNHECPTFQSVFK", "notes": "The natural protein purified from M426 medium began 11 residues further downstream (residue 38), with a second N-terminus three residues later; The N-terminus of the recombinant protein is not reported; In the ELISAs it was untagged full-length FRP purified from the medium of MDCK cells transfected with pcDNA3.1(+); also called hFRP; recombinant FRP"}}, "molecular_target": "T1, Wingless (Wg), the Drosophila homolog of Wnt-1 (Drosophila, UniProt P09615 18-468)", "T1 construct": "mature; Used as unpurified conditioned medium in the ELISAs", "T1 sequence (looked up)": "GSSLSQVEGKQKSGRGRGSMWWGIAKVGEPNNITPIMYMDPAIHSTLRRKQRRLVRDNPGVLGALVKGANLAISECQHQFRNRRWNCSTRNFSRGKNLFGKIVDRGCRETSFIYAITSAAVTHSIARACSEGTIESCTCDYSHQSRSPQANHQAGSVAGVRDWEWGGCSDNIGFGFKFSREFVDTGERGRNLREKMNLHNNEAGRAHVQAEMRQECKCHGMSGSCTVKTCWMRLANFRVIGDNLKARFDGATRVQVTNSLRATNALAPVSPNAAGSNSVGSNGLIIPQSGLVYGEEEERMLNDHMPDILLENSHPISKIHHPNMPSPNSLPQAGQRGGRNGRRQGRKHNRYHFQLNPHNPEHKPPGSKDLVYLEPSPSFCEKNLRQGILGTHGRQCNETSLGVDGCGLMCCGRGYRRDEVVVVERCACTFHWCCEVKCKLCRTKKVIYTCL", "experiment": "ELISA: FRP coated at 100 ng/well, Wg-containing S2 conditioned medium, detection with anti-Wg antibody", "text": "As an alternative, cell-free systems to study the binding of FRP and Wnts were developed. These systems have the advantage of simplicity, as the profile of endogenous Frizzled/FRP/Wnt expression would not be an issue. Moreover, experiments now can be performed with purified recombinant FRP. One model system disclosed in detail below makes use of an ELISA type of format. Microtiter wells are first coated with purified FRP, and then blocked with a large excess of bovine serum albumin (BSA). To minimize the problems associated with solubilizing Wnts, initial studies focused on studying FRP binding to Wingless (Wg) because an expression system is available that releases Wg into conditioned medium. Van Leeuwen, et al., Nature 368:342–344 (1994). Although expression of a heat shock-Wg construct in transfected S2 insect cells results in only a small fraction of recombinant Wg in the media, it is sufficient for binding studies and obviates the need for detergents or other agents to extract the protein from cell surfaces or extracellular matrix. […] After washing, the wells are sequentially incubated with antibody to Wg, secondary antiserum (against the Wg antibody) conjugated to alkaline phosphatase, and p-nitrophenol phosphate. […]\nFIG. 13 illustrates the binding of FRP and Wg. […] Color development, monitored at 405 nm, was indicative of Wg binding in the well."}
{"binder": "B1", "values": [{"measurement": "binding result", "result": "binds"}]}
